The target in this test is nicotinic acetylcholine receptor subunit α9 (CHRNA9) (human (endogenous in BT474, MDA-MB-231, A549, RT4, MIA PaCa-2 and clinical breast tumors)) (UniProt Q9UGM1). Nature of the test: co-IP; endogenous proteins in MDA-MB-231 cells; reciprocal IPs, 1% NP40 lysis buffer, Protein G beads; IP ratio (IPR) against input, threshold >3% in both.

Where “and” joins values, the source holds several entries; their conditions need not be identical. Equal entries are not always repeated.

UniProt Q9UGM1, sequence (Q9UGM1 23-479): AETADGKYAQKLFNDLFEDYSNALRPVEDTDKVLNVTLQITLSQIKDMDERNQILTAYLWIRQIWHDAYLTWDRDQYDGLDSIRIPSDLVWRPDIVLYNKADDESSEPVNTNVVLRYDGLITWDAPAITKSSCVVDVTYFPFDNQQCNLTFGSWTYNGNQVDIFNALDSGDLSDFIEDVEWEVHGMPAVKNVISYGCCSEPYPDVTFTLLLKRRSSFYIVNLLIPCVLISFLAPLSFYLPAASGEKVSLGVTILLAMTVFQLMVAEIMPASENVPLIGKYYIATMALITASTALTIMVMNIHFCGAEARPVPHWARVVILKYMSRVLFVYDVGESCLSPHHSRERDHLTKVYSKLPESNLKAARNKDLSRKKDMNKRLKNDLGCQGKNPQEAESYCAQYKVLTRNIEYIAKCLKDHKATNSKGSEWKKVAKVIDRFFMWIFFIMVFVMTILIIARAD

For the substance “ABCB1 (from UniProt P08183 1-1280) (natural protein)”, the IP ratio (IPR) was 3.05% and 25.1%.

The values above are taken from paper PMC6635409.
